This note sets out measurements from patent US12295987B2, “Method of using a GIP/GLP1 co-agonist for diabetes” (Eli Lilly and Company, priority 2018, dated 2025).

The target of the test is T1, human gastric inhibitory peptide receptor (hGIPR) (Homo sapiens, UniProt P48546).
T1 construct: expressed in transfected cells; host or cells: HEK293
T1 sequence (P48546 22-466): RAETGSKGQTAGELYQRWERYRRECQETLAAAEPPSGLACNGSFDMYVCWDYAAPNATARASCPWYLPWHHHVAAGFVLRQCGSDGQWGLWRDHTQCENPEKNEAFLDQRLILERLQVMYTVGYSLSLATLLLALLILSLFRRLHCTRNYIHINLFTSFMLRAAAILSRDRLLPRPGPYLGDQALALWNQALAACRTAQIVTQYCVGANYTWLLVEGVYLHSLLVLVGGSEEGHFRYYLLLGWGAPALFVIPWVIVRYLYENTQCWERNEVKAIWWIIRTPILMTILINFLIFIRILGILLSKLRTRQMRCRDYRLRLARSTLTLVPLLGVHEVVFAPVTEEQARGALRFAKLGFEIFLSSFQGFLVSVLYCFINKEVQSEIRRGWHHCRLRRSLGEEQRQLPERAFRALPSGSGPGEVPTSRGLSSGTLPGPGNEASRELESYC
As to the kind of experiment: cAMP pharmacological functional assay in presence of 0.1% casein, hGIPR. The format is cell-based. The conditions noted are these: ratio of hGIPR to hGLP1R cAMP EC50 ratios.

“Y-Aib-EGT-αMeF(2F)-TSDYSI-αMeL-LDHK((2-[2-(2-Amino-ethoxy)-ethoxy]-acetyl)2-(γGlu)-CO—(CH2)18—CO2H)AQ-Aib-EFI-(D-Glu)-YLIEGGPSSGAPPPS-NH2 (YXEGTXTSDYSIXLDHKAQXEFIXYLIEGGPSSGAPPPS; Aib, αMe residues, lipidated Lys, D-Glu, C-terminal amide; (2)..(2) Xaa at position 2 is Aib; (6)..(6) Xaa at position 6 is alpha-methyl-Phe(2F); (13)..(13) Xaa at position 13 is alpha-methyl-Leu; MOD_RES (17)..(17) Lys at position 17 is chemically modified by conjugation of the epsilon-amino group of the Lys side chain with (2-[2-(2-amino-ethoxy)-ethoxy]-acetyl)2-(gamma-Glu)-CO-(CH2)18- CO2H; (20)..(20) Xaa at position 20 is Aib; (24)..(24) Xaa at positi) [Peptide 230]”: the “[hGIPR/hGLP1R] EC50 Ratio” value is 5.53.

As for “Y-Aib-EGT-αMeF(2F)-TSDYSI-αMeL-LDKK((2-[2-(2-Amino-ethoxy)-ethoxy]-acetyl)2-(γGlu)-CO—(CH2)18—CO2H)AQ-Aib-EFI-(D-Glu)-YLIEGGPSSGAPPPS-NH2 (YXEGTXTSDYSIXLDKKAQXEFIXYLIEGGPSSGAPPPS; Aib, αMeF(2F), αMeL, D-Glu; lipidated K; amide; (2)..(2) Xaa at position 2 is Aib; (6)..(6) Xaa at position 6 is alpha-methyl-Phe(2F); (13)..(13) Xaa at position 13 is alpha-methyl-Leu; MOD_RES (17)..(17) Lys at position 17 is chemically modified by conjugation of the epsilon-amino group of the Lys side chain with (2-[2-(2-amino-ethoxy)-ethoxy]-acetyl)2-(gamma-Glu)-CO-(CH2)18- CO2H; (20)..(20) Xaa at position 20 is Aib; (24)..(24) Xaa at positi) [Peptide 212]”, the “[hGIPR/hGLP1R] EC50 Ratio” value is recorded as 5.41.

Turning to “Y-Aib-EGT-αMeF(2F)-TSDYSI-αMeL-LDKK((2-[2-(2-Amino-ethoxy)-ethoxy]-acetyl)-(γGlu)-(2-[2-(2-Amino-ethoxy)-ethoxy]-acetyl)-CO—(CH2)18—CO2H)AQ-Aib-EFI-(D-Glu)-YLIEGGPSSGAPPPS-NH2 (YXEGTXTSDYSIXLDKKAQXEFIXYLIEGGPSSGAPPPS; Aib, αMeF(2F), αMeL, D-Glu; lipidated K; amide; (2)..(2) Xaa at position 2 is Aib; (6)..(6) Xaa at position 6 is alpha-methyl-Phe(2F); (13)..(13) Xaa at position 13 is alpha-methyl-Leu; MOD_RES (17)..(17) Lys at position 17 is chemically modified by conjugation of the epsilon-amino group of the Lys side chain with (2-[2-(2-Amino-ethoxy)-ethoxy]-acetyl)-(gamma-Glu)-(2-[2-(2-Amino- ethoxy)-ethoxy]-acetyl)-CO-(CH2)18-CO2H; (20)..(20) Xaa at positi) [Peptide 211]”, the “[hGIPR/hGLP1R] EC50 Ratio” value was found to be 3.59.

Regarding “Y-Aib-EGT-αMeF(2F)-TSDYSILLD-Orn-K((2-[2-(2-Amino-ethoxy)-ethoxy]-acetyl)2-(γGlu)-CO—(CH2)16—CO2H)AQ-Aib-EFI-(D-Glu)-YLIEGGPSSGAPPPS-NH2 (YXEGTXTSDYSILLDXKAQXEFIXYLIEGGPSSGAPPPS; Aib, Orn, αMeF(2F), lipidated Lys, D-Glu, amide; (2)..(2) Xaa at position 2 is Aib; (6)..(6) Xaa at position 6 is alpha-methyl-Phe(2F); (16)..(16) Xaa at position 16 is Orn; MOD_RES (17)..(17) Lys at position 17 is chemically modified by conjugation of the epsilon-amino group of the Lys side chain with (2-[2-(2-amino-ethoxy)-ethoxy]-acetyl)2-(gamma-Glu)-CO-(CH2)16- CO2H; (20)..(20) Xaa at position 20 is Aib; (24)..(24) Xaa at position 24 is D-Gl) [Peptide 248]”, the “[hGIPR/hGLP1R] EC50 Ratio” value stood at 6.35.

Regarding “Y-Aib-EGT-αMeF(2F)-TSDYSILLDEK((2-[2-(2-Amino-ethoxy)-ethoxy]-acetyl)2-(γGlu)-CO—(CH2)18—CO2H)AQ-Aib-EFI-(D-Glu)-YLIEGGPSSGAPPPS-NH2 (YXEGTXTSDYSILLDEKAQXEFIXYLIEGGPSSGAPPPS; Aib, αMeF(2F), D-Glu; lipidated K; amide; (2)..(2) Xaa at position 2 is Aib; (6)..(6) Xaa at position 6 is alpha-methyl-Phe(2F); MOD_RES (17)..(17) Lys at position 17 is chemically modified by conjugation of the epsilon-amino group of the Lys side chain with (2-[2-(2-amino-ethoxy)-ethoxy]-acetyl)2-(gamma-Glu)-CO-(CH2)18- CO2H; (20)..(20) Xaa at position 20 is Aib; (24)..(24) Xaa at position 24 is D-Glu; MOD_RES (39)..(39) Ser at position) [Peptide 226]”, the “[hGIPR/hGLP1R] EC50 Ratio” value is on record as 3.42.

Regarding “Y-Aib-EGT-αMeF-TSDHSILLDKK((2-[2-(2-Amino-ethoxy)-ethoxy]-acetyl)2-(γGlu)-CO—(CH2)18—CO2H)AQ-Aib-AFIEYLIEGGPSSGAPPPS-NH2 (YXEGTXTSDHSILLDKKAQXAFIEYLIEGGPSSGAPPPS; Aib, αMeF; acylated lysine C20 diacid; amide; (2)..(2) Xaa at position 2 is Aib; (6)..(6) Xaa at position 6 is alpha-methyl-Phe; MOD_RES (17)..(17) Lys at position 17 is chemically modified by conjugation of the epsilon-amino group of the Lys side chain with (2-[2-(2-amino-ethoxy)-ethoxy]-acetyl)2-(gamma-Glu)-CO-(CH2)18- CO2H; (20)..(20) Xaa at position 20 is Aib; MOD_RES (39)..(39) Ser at position 39 is amidated) [Peptide 128]”, the “[hGIPR/hGLP1R] EC50 Ratio” value stood at 3.51.

With “Y-Aib-EGT-αMeF-TSDLSILLDKK((2-[2-(2-Amino-ethoxy)-ethoxy]-acetyl)2-(γGlu)-CO—(CH2)18—CO2H)AQ-Aib-AFIEYLIEGGPSSGAPPPS-NH2 (YXEGTXTSDLSILLDKKAQXAFIEYLIEGGPSSGAPPPS; Aib, αMeF; acylated lysine C20 diacid; amide; (2)..(2) Xaa at position 2 is Aib; (6)..(6) Xaa at position 6 is alpha-methyl-Phe; MOD_RES (17)..(17) Lys at position 17 is chemically modified by conjugation of the epsilon-amino group of the Lys side chain with (2-[2-(2-amino-ethoxy)-ethoxy]-acetyl)2-(gamma-Glu)-CO-(CH2)18- CO2H; (20)..(20) Xaa at position 20 is Aib; MOD_RES (39)..(39) Ser at position 39 is amidated) [Peptide 129]”, the “[hGIPR/hGLP1R] EC50 Ratio” value is reported as 3.46.
